Source: patent US20240238459A1, “Granzyme-Activatable Membrane-Interacting Peptides and Methods of Use” (priority 2021, published 2024)
Ends that are not written are not given here.

Experiments:
[1] = molecular target: T1, granzyme B (Homo sapiens, UniProt P10144); experiment: Protease specificity of substrate sequence (FIG. 1F); assay type: biochemical; set-up: purchased; conditions: vs thrombin, caspase 3, caspase 8, granzyme K, MMP9, C1S; enzymes 5 nM, substrate 60 μM, 37° C., PBS, 1 mM DTT, pH 7.4
Protocol: The substrate sequence FVQWFSKFLGK (SEQ ID NO:3) was assessed for specificity for granzyme B compared to thrombin, caspase 3, caspase 8, granzyme K, MMP9, and C1S at 5 nM concentrations with substrate at 60 μM, 37° C., and buffer of PBS, 1 mM DTT, and pH 7.4.

[2] = test system: human erythrocytes; experiment: Toxicity assay measuring hemolysis of human erythrocytes; conditions: in vitro, 1 hr at 37° C., hemoglobin release OD 540 nm
Protocol: Blood from healthy anonymous donors was harvested from Trima Leukoreduction chambers (Vitalant, San Francisco CA). Erythrocytes were isolated from the anonymous blood samples. Full-length GRIP B and activated GRIP B were measured for their hemolytic activity on healthy human erythrocytes in triplicate. Aliquots of human erythrocytes were suspended in PBS (pH 7.4) and incubated with serial dilutions of both peptides which were initially solubilized in DMSO. DMSO and 1% Triton X-100 were incubated in parallel as negative and positive controls, respectively. Incubation was for 1 hr at 37° C. After incubation, the samples were centrifuged for 5 min at 2,000×g upon which the supernatant was collected. Supernatant was measured for the release of hemoglobin by the erythrocytes using a BioTek H4 multimode plate reader, monitoring the optical density of the supernatant at a wavelength of 540 nm.

[3] = molecular target: T1, granzyme B; experiment: In vitro kinetics of quenched fluorogenic peptide proteolysis by GZMB; assay type: biochemical; conditions: Michaelis-Menten kinetics (FIG. 1D)

T1 sequence (P10144 21-247): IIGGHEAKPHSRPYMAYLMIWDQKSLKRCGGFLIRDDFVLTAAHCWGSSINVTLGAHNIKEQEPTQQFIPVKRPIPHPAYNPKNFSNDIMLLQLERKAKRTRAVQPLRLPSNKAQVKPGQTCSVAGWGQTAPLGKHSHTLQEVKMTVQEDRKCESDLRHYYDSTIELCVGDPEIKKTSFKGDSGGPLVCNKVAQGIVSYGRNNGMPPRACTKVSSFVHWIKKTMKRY

Sequence: FVQWFSKFLGK
- specificity for granzyme B compared to other proteases [1]: highly specific for granzyme B

Sequence: FVQWFSKFLGKIEPDVSQVQDPNDQYEPF [GRIP B]
- toxicity toward human red blood cells [2]: not to display toxicity

Sequence: IEPDVSQV (ends and bridges not checked) [NH2-K(MCA)IEPDVSQVK(DNP)-COOH]
- improved catalytic turnover compared to IEPD alone [3]: approximately 2 fold
